T1: MERS stem helix peptide (MERS-CoV)
T1 chain: DFQDELDEFFKNVST

T2: SARS-CoV-2 stem helix peptide (SARS-CoV-2)
T2 chain: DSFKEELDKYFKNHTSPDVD

B1: Fab22 (Fab, V domains shown)
VH: EVQLQQPGPVLVKPGASVRMSCKASGYRITDNFMNWVKQSHGKSLEWIGIINPYNGGTKYNQKFKGKATLTVDTSSSTAYMELNSLTSEDSAVYYCTRVRGNDYHGRAMDYWGQGTSVTVSS
VL: DVVLTQTPLSLPVNIGDQASISCKSTKSLLNRDGFTFLDWYLQKPGQSPQLLIYLVSNRFSGVPDRFSGSGSGTDFTLKISRVEAEDLGVYYCFQSNYLFTFGSGTKLEIK
B2: LCmod-Fab22 (Fab, V domains shown)
VH: B1 VH
VL: B1 VL

How the values were obtained:
MERS stem helix peptide = target: T1, MERS stem helix peptide; test: crystal structure
[1] = target: T2, SARS-CoV-2 stem helix peptide; test: crystal structure

Binder | binding result (MERS stem helix peptide) | binding result [1]
B1 | binds | 
B2 |  | binds

— publication PMC8519809 (Cell Reports, 2021)
